The EC50 is the midpoint of the concentration-response curve.

Here are results for two molecules from EP4682166A1 (Guangzhou Enmai Biotechnology Co., Ltd, dated 2026).

Experiment [1] deals with T1, human NMI (N-myc Interacting protein), recombinant protein (human, UniProt Q13287 1-307, limits assumed).
T1 construct: Gene ID: 9111; also called hNMI; antigen
T1 sequence (looked up): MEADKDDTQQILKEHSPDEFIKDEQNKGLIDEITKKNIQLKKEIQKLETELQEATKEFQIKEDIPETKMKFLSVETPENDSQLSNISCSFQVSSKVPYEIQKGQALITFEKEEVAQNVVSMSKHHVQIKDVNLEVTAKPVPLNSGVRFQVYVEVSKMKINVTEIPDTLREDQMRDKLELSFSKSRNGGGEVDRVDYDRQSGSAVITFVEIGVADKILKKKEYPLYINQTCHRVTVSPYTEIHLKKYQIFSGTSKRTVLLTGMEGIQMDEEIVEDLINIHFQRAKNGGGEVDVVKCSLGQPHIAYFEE
Nature of the experiment: ELISA, binding to hNMI. For orientation: An ELISA detects its analyte on a solid surface through an enzyme-linked reagent.

The target in experiment [2] is T2, natural NMI in joint fluid of an arthritic patient (human) (UniProt Q13287).
T2 sequence (looked up): T1 sequence (looked up)
Nature of the experiment: sandwich ELISA; detection 94C4-1-biotin 0.5µg/mL; joint fluid diluted 1/2.

Experiment [3] deals with T3, NMI-flag overexpressed protein (293T cells transfected with the hNMI-flag plasmid) (human) (UniProt Q13287).
T3 sequence (looked up): T1 sequence (looked up)
Nature of the experiment: sandwich ELISA; detection 94C4-1-biotin; cell lysates of NMI-flag 293T, replicate 1.

Experiment [4] deals with T4, human NMI (N-myc Interacting protein) (human) (UniProt Q13287).
T4 sequence (looked up): T1 sequence (looked up)
The experiment can be described thus: magnetic-bead chemiluminescent sandwich; capture 98G10 beads (0.5 mg 98G10), detection acridinium-B-8; hNMI 400 pg/ml.

In experiment [5] the target is T4, human NMI (N-myc Interacting protein) (human). Nature of the experiment: magnetic-bead chemiluminescent sandwich; capture 98G10 beads (1.0 mg 98G10), detection acridinium-B-8; hNMI 100 pg/ml.
For experiment [6] the target is unchanged. Nature of the experiment: magnetic-bead chemiluminescent sandwich; capture 98G10 beads (1.0 mg 98G10), detection acridinium-B-8; hNMI 400 pg/ml.
Experiment [7] shares this target. The experiment can be described thus: magnetic-bead chemiluminescent sandwich; capture 98G10 beads (0.5 mg 98G10), detection acridinium-B-8; hNMI 1000 pg/ml.
The target is the same in experiment [8]. The experiment can be described thus: magnetic-bead chemiluminescent sandwich; capture 98G10 beads (0.5 mg 98G10), detection acridinium-B-8; hNMI 2000 pg/ml.
The target is the same in experiment [9]. Nature of the experiment: magnetic-bead chemiluminescent sandwich; capture 98G10 beads (1.0 mg 98G10), detection acridinium-B-8; hNMI 1000 pg/ml.
Experiment [10] has the same target. The experiment can be described thus: magnetic-bead chemiluminescent sandwich; capture 98G10 beads, detection acridinium-B-8 (1.0 mg B-8 labelled); hNMI 400 pg/mL.
For experiment [11] the target is unchanged. The experiment can be described thus: magnetic-bead chemiluminescent sandwich; capture 98G10 beads, detection acridinium-B-8 (2.0 mg B-8 labelled); hNMI 100 pg/mL.
For experiment [12] the target is unchanged. The experiment can be described thus: magnetic-bead chemiluminescent sandwich; capture 98G10 beads, detection acridinium-B-8 (1.0 mg B-8 labelled); hNMI 1000 pg/mL.
For experiment [13] the target is unchanged. Nature of the experiment: magnetic-bead chemiluminescent sandwich; capture 98G10 beads, detection acridinium-B-8 (1.0 mg B-8 labelled); hNMI 2000 pg/mL.
The target is the same in experiment [14]. Nature of the experiment: magnetic-bead chemiluminescent sandwich; capture 98G10 beads, detection acridinium-B-8 (2.0 mg B-8 labelled); hNMI 1000 pg/mL.
Experiment [15] shares this target. Nature of the experiment: magnetic-bead chemiluminescent sandwich; capture 98G10 beads, detection acridinium-B-8 (2.0 mg B-8 labelled); hNMI 2000 pg/mL.
The target is the same in experiment [16]. Nature of the experiment: magnetic-bead chemiluminescent sandwich, kit of Example 8-1; capture 98G10 beads, detection acridinium-B-8; series 2, hNMI 50 pg/mL.
The target is the same in experiment [17]. Nature of the experiment: magnetic-bead chemiluminescent sandwich, kit of Example 8-1; capture 98G10 beads, detection acridinium-B-8; series 3, hNMI 50 pg/mL.
Experiment [18] has the same target. The experiment can be described thus: magnetic-bead chemiluminescent sandwich, kit of Example 8-1; capture 98G10 beads, detection acridinium-B-8; series 2, hNMI 150 pg/mL.
For experiment [19] the target is unchanged. Nature of the experiment: magnetic-bead chemiluminescent sandwich, kit of Example 8-1; capture 98G10 beads, detection acridinium-B-8; series 1, hNMI 1000 pg/mL.
The target is the same in experiment [20]. Nature of the experiment: magnetic-bead chemiluminescent sandwich, kit of Example 8-1; capture 98G10 beads, detection acridinium-B-8; series 1, hNMI 4000 pg/mL.
For experiment [21] the target is unchanged. Nature of the experiment: magnetic-bead chemiluminescent sandwich, kit of Example 8-1; capture 98G10 beads, detection acridinium-B-8; series 1, hNMI 8000 pg/mL.
For experiment [22] the target is unchanged. Nature of the experiment: magnetic-bead chemiluminescent sandwich, kit of Example 8-1; capture 98G10 beads, detection acridinium-B-8; series 1, hNMI 12000 pg/mL.
Experiment [23] has the same target. Nature of the experiment: magnetic-bead chemiluminescent sandwich, kit of Example 8-1; capture 98G10 beads, detection acridinium-B-8; series 1, hNMI 14000 pg/mL.
The target is the same in experiment [24]. The experiment can be described thus: magnetic-bead chemiluminescent sandwich, kit of Example 8-1; capture 98G10 beads, detection acridinium-B-8; series 1, hNMI 16000 pg/mL.

B1: monoclonal antibody B-8 (antibody, V domains shown)
VH: QSLEESGGDLVKPGASLTLTCTASGFSFSSSYYMCWVRQAPGKGLEWIACIYAGSSGSTYYASWAKGRFTISKTSSTTVTLQMTSLTAADTATYFCAREYSYDDYGDFWGFNLWGPGTLVTVSS
VL: ALVMTQTPSSVSAAVGGTVTINCQASQNIYTNLAWYQQKPGQPPKLLIYGASNLESGVPSRFKGSGSGTEYTLTISDLECDDAATYYCQSSLYSRIADRANAFGGGTEVVVK
notes: Rabbit monoclonal antibody; also called B8-1
As to B1, the EC50 in experiment [1] was determined as 0.309 nM. For the same molecule, the OD450 in experiment [2] came out at 0.128 OD450; in [3], 3.03 OD450.

B2: acridinium ester-labeled monoclonal antibody B-8 (antibody, V domains shown)
VH: B1 VH
VL: B1 VL
modifications: acridinium ester label on the antibody, site not stated
With B2, the Signal value in experiment [4] amounted to 39900; in experiment [5], 20400; in experiment [6], 86800; in [7], 97600; in [8], 204000; in experiment [9], 201000. For the same molecule, the Signal value came to 39900 in [10]; 11900 in experiment [11]; 97600 in [12]; 204000 in experiment [13]; 116000 in experiment [14]; 234000 in [15]. Moreover, the Signal value is 6180 in experiment [16]; 6120 in experiment [17]; 15500 in experiment [18]; 57600 in experiment [19]; 258000 in experiment [20]; 587000 in experiment [21]. Further, the Signal value in experiment [22] worked out at 894000; in [23], 1.05e+06; in experiment [24] it was 1.21e+06.
